Measured values published in patent US20080139790A1 (ARANA THERAPEUTICS, published 2008).
Where a chain is given by its changes, count along the chain named.

B1: AB138 (antibody, human IgG1, kappa, V domains shown)
VH: QVQLVQSGAEVKKPGASVKVSCKASGYTFTSYAISWARQPPGQGLEWMGAFDPEYGSTTYAQKFQGRVTMTADTSTSTAYMELSSLRPEDTAVYYCARDVNFGNYFDYWGQGTLVTVSS
VL: ELVMTQSPATLSLSPGERATVSCRAGQSVSYYLAWYQQKPGQAPRLLIYGASTRATGIPARFSGSRSGTDFTLTISSLEPEDFAVYYCQQYSSWPPTFGQGTKLEIKR
notes: Expressed in CHOK1SV cells, purified on Protein A; also called marmoset human fusion antibody; MOG specific marmoset derived antibody variable regions with human IgG1 / kappa constant regions
B2: CDR2-substituted domain antibody SEQ ID No 26 (other)
chain: DIQMTQSPSSLSASGDRVTITCRASQSIDSYLHWYQQKPGKAPKLLIYAASNRASGVPSRFSGSGSGTDFTLTISSLQPEDFATYYCQQVVWRPFTFGQGTKVEIKR
notes: not shown: 6xHIS tag introduced by vector pBAD/gIII
B3: CDR2-substituted domain antibody SEQ ID No 28 (other)
chain: B2 chain with A49Y, N52F, R53L, A54Q, S55G
notes: as for B2
B4: CDR2-substituted domain antibody SEQ ID No 31 (other)
chain: B2 chain with A49D, N52S, R53L, A54Q, S55P
notes: as for B2
B5: unsubstituted acceptor anti-TNFα domain antibody (SEQ ID No: 7) (other)
chain: B2 chain with A49S, N52E, R53L, A54Q
notes: Single variable domain (domain antibody, dAb) from Basran et al. WO 2004/081026, CDR2 SASELQS; also called acceptor domain antibody; not shown: 6xHIS tag from vector pBAD/gIII (detection was by anti-HIS antibody); its positi
B6: CDR2-substituted domain antibody SEQ ID No 29 (other)
chain: B2 chain with A49R, A50V
notes: as for B2
B7: CDR2-substituted domain antibody SEQ ID No 25 (other)
chain: B2 chain with A49K, A50V
notes: Secretory signal peptide from the vector, expressed in E. coli periplasm; not shown: 6xHIS tag introduced by vector pBAD/gIII

These binders were tested against T1, rat MOG (myelin-oligodendrocyte glycoprotein) (rat, UniProt Q63345 28-245) (assay: western blot of rat spinal cord lysate, AB138 at 10 ug/mL, anti-human IgG HRP).
T1 construct: mature; Not a purified protein: identified by the band size of about 25 kDa in a western blot of rat spinal cord lysate; also called antigen of M26; protein of size 25 kDa
T1 sequence (looked up): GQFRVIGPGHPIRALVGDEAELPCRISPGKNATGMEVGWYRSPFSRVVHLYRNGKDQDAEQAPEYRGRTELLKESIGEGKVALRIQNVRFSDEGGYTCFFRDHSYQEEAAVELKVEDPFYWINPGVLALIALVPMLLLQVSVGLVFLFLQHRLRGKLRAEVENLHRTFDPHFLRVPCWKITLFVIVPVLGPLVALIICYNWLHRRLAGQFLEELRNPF
Experimental: The ability of AB138 to retain binding to the antigen of M26, rat MOG (myelin-oligodendrocyte glycoprotein), was investigated by Western Blot. 130 mg of rat spinal cord (IMVS, Australia) was homogenized in 1.8 ml CelLytic M Cell Lysis Reagent (SIGMA, C2978) and incubated for 30 minutes at 4° C. Further homogenization was performed by drawing the lysate through a 27 g1/2 needle several times followed by centrifugation at 4° C. and 13000 g for 30 minutes. The pellet and supernatant was diluted into SDS-PAGE sample buffer (125 mM Tris-HCl pH 6.8, 5% SDS, 0.25% bromophenol blue, 25% glycerol). Along with this 200 μl CHOK1SV cells at 1×10⁶ viable cells per ml were spun down at 13000×g at 4° C. for 1 minute and resuspended in 200 μl CelLytic M Cell Lysis Reagent (SIGMA). Following centrifugation at 4° C. and 13000×g for 30 minutes the supernatant was mixed with the appropriate amount of SDS-PAGE sample buffer. All samples, along with a sample of molecular weight markers, were run on a 4-20% Novex pre-cast gel (Invitrogen, Australia) for 2 hours at 120V. Proteins were then transferred to PVDF (BioRad, Australia) using a western blot apparatus in 1× Tris-Glycine Buffer with 20% methanol (BioRad, Cat 161+-0771) at 4° C. at 250 mA for 2 hours. […] Following washing, bound antibody was detected using the ECL Western Blotting Analysis System, (Amersham Biosciences Cat: RPN2109). […]

Binding result, binds:
B1

The binders below were run against T2, TNF-α (Peprotech Cat No: 300-01A) (UniProt P01375 77-233) (assay: ELISA, TNF-α coated at 1 µg/mL, detection with anti-HIS HRP).
T2 construct: Coated on the ELISA plate at 1 µg/mL
Experimental: TNF-α (Peprotech Cat No: 300-01A) was diluted to 1 μg/mL in carbonate coating buffer ([…] pH 9.6). 100 μL of this solution was added to a well of a 96 well plate and incubated at 4° C. overnight in a humidified container. The plate was then washed three times with wash buffer (0.01M PBS pH 7.2, 0.05% Tween-20) and then three times with 0.01M PBS pH 7.2. The wells were then blocked by adding 200 μL blocking buffer (1% w/v BSA in 0.01M PBS pH 7.2) to each well and incubating the plate at 25° C., in a humidified container, for 1 hour. Desalted domain antibody protein sample was diluted in antibody diluent (1% w/v BSA, 0.05% Tween-20 in 0.01M PBS pH 7.2) and added to the wells contain TNF-α and allowed to incubate for 1 hour at 25° C. The plate was then washed as previously described. 100 μL of Anti-HIS antibody HRP conjugate (Sigma-Aldrich, Australia Cat No: A7058) at 1:2000 in antibody diluent was used to detect bound domain antibody. Wells with antibody diluent only were used to assess background absorbance. After incubation at 25° C., in a humidified container, for 1 hour the plate washed again as previously described. 100 μL TMB substrate solution (Zymed, Cat No: 00-2023) was added to each well and the colour allowed to develop for 4 min. 100 μL of 1M HCl was added to terminate the colour development reaction and absorbance was determined at 450 nm (ref. 620 nm)

T2 sequence (P01375 77-233 limits assumed): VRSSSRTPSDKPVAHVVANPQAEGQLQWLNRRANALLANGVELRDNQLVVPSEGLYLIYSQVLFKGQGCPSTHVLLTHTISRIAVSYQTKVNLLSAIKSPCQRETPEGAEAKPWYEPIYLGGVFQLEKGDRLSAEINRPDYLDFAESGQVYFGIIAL

Binding result, binds:
B2
B3
B4
B5
B6
B7
